Consider 2 molecules from article PMC7261172 (2020).

In general, Kd refers to the constant that tells how readily two partners part at equilibrium. Higher therefore signals a looser complex.

For this assay, the target named is E. coli β-clamp labelled with RED-maleimide dye (MST) (E. coli, UniProt P0A988 1-366, RED-maleimide fluorescent dye (RED-Maleimide Labelling Kit, NanoTemper); site not stated). The assay can be described thus: MST.

Molecule Ac-MDRWLVKWKKKRKIRRRRRRRRRRR-NH2 (also: TFA salt) [Cell penetrating APIM-peptide RWLVK (Ac-MD-RWLVK-WKKKRKI-RRRRRRRRRRR)] yielded a Kd of 35 µM.

As to Ac-MDRFSLKWKKKRKIRRRRRRRRRRR-NH2 (also: TFA salt) [Cell penetrating APIM-peptide RFSLK (Ac-MD-RFSLK-WKKKRKI-RRRRRRRRRRR)], the Kd is 19 µM.
